From patent publication US20140256789

Columns and labels:
[1] = target: p53 (wild-type, endogenous) (Homo sapiens) (UniProt P04637); experiment: cell_activity; details: fold decrease in luciferase on p53 siRNA knockdown in HCT116
[2] = test system: p53 (wild-type, transfected); experiment: cell_activity; details: luciferase reporter in H1299 with wtp53, fold above pGL3-basic

p53 (wild-type, endogenous) (Homo sapiens), sequence (P04637 whole entry): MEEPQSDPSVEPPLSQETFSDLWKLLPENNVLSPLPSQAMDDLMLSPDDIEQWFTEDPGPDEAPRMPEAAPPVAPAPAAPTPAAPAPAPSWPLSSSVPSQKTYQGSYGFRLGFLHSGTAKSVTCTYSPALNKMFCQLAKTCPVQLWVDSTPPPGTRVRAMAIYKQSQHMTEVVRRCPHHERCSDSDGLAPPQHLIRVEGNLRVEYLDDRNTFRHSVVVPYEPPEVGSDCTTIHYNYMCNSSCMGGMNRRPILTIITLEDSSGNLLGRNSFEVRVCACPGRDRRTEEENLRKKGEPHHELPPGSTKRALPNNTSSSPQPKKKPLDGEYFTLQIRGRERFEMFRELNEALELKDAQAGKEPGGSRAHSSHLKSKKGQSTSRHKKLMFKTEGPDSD

EST-Prom-luc (about 2 kb miR-34a promoter region with p53BS)
activity [1]: > 3 fold | activity [2]: 20 fold
